Earlier results in paper PMC3006222.

Biological target: Heat-labile enterotoxin B subunit (LTB) (UniProt P0CK94)
Test: not stated in this article (acid-induced pentamer disassembly, earlier work)
Conditions: pH 1.9

UniProt P0CK94, sequence (P0CK94 whole entry): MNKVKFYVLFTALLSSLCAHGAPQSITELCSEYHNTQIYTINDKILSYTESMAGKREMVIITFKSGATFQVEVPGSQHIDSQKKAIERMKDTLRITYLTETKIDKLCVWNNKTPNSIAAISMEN

## Heat-labile enterotoxin B subunit (LTB)
  threshold pH for acid disassembly of the pentamer: 1.9 pH
